B1: Aptamer 1e (ssDNA)
DNA: CACCTAACACGATTCACTATAGCTCGGGGTTTGGCA
B2: Aptamer 1 (ssDNA)
DNA: CACCTAATACGACTCACTATAGCGGATCCGATGGGTGGGGGGGTGGGTAGGATCCGTTCGGGGTTTGGCATAGGGTCTGGCTCGAACAAGCTTGC
B3: Aptamer 1 fluorescence/quencher probe (mixed)
DNA 1: B2 DNA
DNA 2: GCAAGCTTGTTCGAGCCAG
DNA 3: CCCTATGCCAAAC
B4: Aptamer 2 (ssDNA)
DNA: CACCTAATACGACTCACTATAGCGGACAGGGCTGGTGTGGCTGGCGTCCGGCTCGAACAAGGCTGGTGTGGCTGGCGTTCTGGCTCGAACAAGCTTGC
B5: Aptamer 3 (ssDNA)
DNA: CACCTAATACGACTCACTATAGCGGATCCGACAGAATGCCATCACCATGTCTAGACCTATTGGCTTTGCGACTGGCTCGAACAAGCTTGC

Tests used:
[1] = target: T1, USE1 (purified, His-USE1) (Homo sapiens, UniProt Q9H832 1-354); assay: Ni-NTA and streptavidin pull-down
T1 sequence (Q9H832 whole entry): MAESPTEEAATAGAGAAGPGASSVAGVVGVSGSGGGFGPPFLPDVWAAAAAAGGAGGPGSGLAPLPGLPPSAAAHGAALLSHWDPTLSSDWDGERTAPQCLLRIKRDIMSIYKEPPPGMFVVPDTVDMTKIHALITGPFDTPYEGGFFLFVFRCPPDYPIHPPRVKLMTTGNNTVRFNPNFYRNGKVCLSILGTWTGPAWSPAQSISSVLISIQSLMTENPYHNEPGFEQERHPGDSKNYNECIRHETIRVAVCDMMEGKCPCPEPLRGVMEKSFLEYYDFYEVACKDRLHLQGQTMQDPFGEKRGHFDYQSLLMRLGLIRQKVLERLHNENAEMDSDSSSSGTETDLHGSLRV

[2] = target: T1, USE1 (purified, His-USE1); assay: equilibrium binding curve, one-site fit
[3] = target: T1, USE1 (purified, His-USE1); assay: ELONA titration
[4] = target: T1, USE1 (purified, His-USE1); assay: fluorescence/quencher displacement

| Binder | Kd [2] | further results |
| --- | --- | --- |
| B1 |  | binding result [1]: binds |
| B2 | 10 ± 2.76 nM | Kd [3]: 7.2 ± 2.91 nM |
| B3 |  | binding result [4]: binds |
| B4 | 32 ± 2.54 nM |  |
| B5 | 90 ± 2.42 nM |  |
